Drawing on article PMC9810080 (Biochemistry, 2022), this text covers Kd and Ka for 5 molecules.

A value given as a limit tells only on which side of the number the result lay.

Common to all, as to assay: ITC
For assay [1], the target named is T1, CaM N-lobe fragment (residues 1–80) (UniProt P0DP23 1-80).
Assay [2] has as its target T1, CaM N-lobe fragment (residues 1–80). This is another data set of the same source.
Assay [3] concerns the target T2, CaM C-lobe fragment (residues 80–149) (UniProt P0DP23 80-149).
In assay [4] the target is T2, CaM C-lobe fragment (residues 80–149). The source holds these as a separate data set.
Assay [5] deals with Calmodulin (CaM), full-length (UniProt P0DP23 1-149).

For orientation: Kd means the equilibrium constant for the complex coming apart. Read a low Kd as tighter binding. On to NDRLQELVKLEKERTEKVKEKLIDP (peptide, UniProt Q14028 565-589, looked up) [CaM1^F575E peptide (CNGB1 residues 565–589, F575E)], for which, in assay [1], the dissociation constant Kd was above 50 µM. In assay [2], the Ka is below 20000 M⁻¹.

Consider NDRLQELVKLFKERTEKVKEKLIDP (peptide, UniProt Q14028 565-589, looked up) [CaM1 peptide, CNGB1 residues 565–589], for which the equilibrium dissociation constant (Kd) in assay [1] came out at 5.7 ± 1 µM; in assay [3], 29 ± 5 µM. Moreover, the Ka in assay [2] is 180000 M⁻¹; in assay [4], 34000 M⁻¹.

GGKGAKGGKLAHLRAREKELAALEAAAK (peptide, UniProt Q14028 1120-1147, looked up) [CaM2^L1136E peptide (CNGB1 residues 1120–1147, L1136E)] came in with a dissociation constant Kd in assay [3] of 84 ± 10 µM. This molecule also displayed a Ka in assay [4] of 12000 M⁻¹.

With GGKGAKGGKLAHLRARLKELAALEAAAK (peptide, UniProt Q14028 1120-1147, looked up) [CaM2 peptide, CNGB1 residues 1120–1147], the Kd in assay [5] stood at 25 ± 4 µM; in assay [3] it was 0.1 ± 0.02 µM. In addition, the values for the Ka in assay [2] and in assay [4] were below 18000 M⁻¹ and 9.8e+06 M⁻¹, respectively.

In turn, GGKGAKGGKLAHERARLKELAALEAAAK (peptide, UniProt Q14028 1120-1147, looked up) [CaM2^L1132E peptide (CNGB1 residues 1120–1147, L1132E)] returned a Kd in assay [3] of 54 ± 5 µM. For the same molecule, the Ka in assay [4] came to 18000 M⁻¹.
